Measurements published in paper PMC9482650, “Quantitative fragmentomics allow affinity mapping of interactomes” (Nature Communications, 2022).

B1: FAM71C, Q8NEG0 (peptide)
chain: STYCDYTIEI
B2: GAS2L2, Q8NHY3 (peptide)
chain: PLPPEEESWV
B3: DUSP5, Q16690 (peptide)
chain: RSPVATATSC
B4: FAM167B, Q9BTA0 (peptide)
chain: NISARRFTLC

Key:
Experiment in all cases: holdup assay
Design in all cases: key: below the threshold = too weak to quantify, mostly under pKd 3.1 to 4
Conditions in all cases: plain residues with an end cap or a label only (N-terminal biotin on a linker: ado-ado)
APBA1_1, Q02410 = molecular target: T1, APBA1_1, Q02410
T1 sequence (Q02410 651-752, limits assumed, looked up): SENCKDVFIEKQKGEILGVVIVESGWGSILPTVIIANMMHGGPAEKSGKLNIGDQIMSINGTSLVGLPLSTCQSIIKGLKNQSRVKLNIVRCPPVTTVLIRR

APBA2_1, Q99767 = molecular target: T2, APBA2_1, Q99767
T2 sequence (Q99767 563-664, limits assumed, looked up): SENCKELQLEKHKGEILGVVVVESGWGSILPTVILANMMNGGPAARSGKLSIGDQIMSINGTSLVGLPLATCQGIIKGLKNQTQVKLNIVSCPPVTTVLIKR

CASK, O14936 = molecular target: CASK, O14936
Sequence of CASK, O14936 (O14936 487-570): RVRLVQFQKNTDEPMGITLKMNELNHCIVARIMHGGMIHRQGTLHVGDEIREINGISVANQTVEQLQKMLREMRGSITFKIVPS

DLG5_1, Q8TDM6 = molecular target: DLG5_1, Q8TDM6
Sequence of DLG5_1, Q8TDM6 (Q8TDM6 617-713): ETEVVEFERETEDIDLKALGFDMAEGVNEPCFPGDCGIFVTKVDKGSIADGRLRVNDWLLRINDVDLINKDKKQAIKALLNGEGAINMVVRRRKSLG

FRMPD4, Q14CM0 = molecular target: FRMPD4, Q14CM0
Sequence of FRMPD4, Q14CM0 (Q14CM0 67-160): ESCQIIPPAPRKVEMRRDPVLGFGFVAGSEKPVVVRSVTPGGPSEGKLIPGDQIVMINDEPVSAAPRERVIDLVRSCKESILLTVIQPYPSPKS

GORASP2, Q9H8Y8 = molecular target: GORASP2, Q9H8Y8
GRID2IP_1, A4D2P6 = molecular target: GRID2IP_1, A4D2P6
Sequence of GRID2IP_1, A4D2P6 (A4D2P6 1-87): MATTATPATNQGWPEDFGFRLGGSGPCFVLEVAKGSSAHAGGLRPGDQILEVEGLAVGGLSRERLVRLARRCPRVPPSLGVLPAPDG

GRIP1_2, Q9Y3R0 = molecular target: T3, GRIP1_2, Q9Y3R0
T3 sequence (Q9Y3R0 145-248, limits assumed, looked up): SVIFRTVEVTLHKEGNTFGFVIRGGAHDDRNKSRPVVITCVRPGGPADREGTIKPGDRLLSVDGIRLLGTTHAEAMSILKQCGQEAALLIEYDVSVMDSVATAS

GRIP1_3, Q9Y3R0 = molecular target: T4, GRIP1_3, Q9Y3R0
T4 sequence (Q9Y3R0 247-346, limits assumed, looked up): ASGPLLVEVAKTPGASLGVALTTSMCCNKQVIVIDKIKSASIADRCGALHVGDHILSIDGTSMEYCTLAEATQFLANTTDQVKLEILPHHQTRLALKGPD

GRIP1_5, Q9Y3R0 = molecular target: T5, GRIP1_5, Q9Y3R0
T5 sequence (Q9Y3R0 568-668, limits assumed, looked up): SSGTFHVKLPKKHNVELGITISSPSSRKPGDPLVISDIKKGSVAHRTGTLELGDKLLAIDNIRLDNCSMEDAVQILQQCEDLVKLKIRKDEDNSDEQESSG

GRIP1_7, Q9Y3R0 = molecular target: T6, GRIP1_7, Q9Y3R0
T6 sequence (Q9Y3R0 999-1096, limits assumed, looked up): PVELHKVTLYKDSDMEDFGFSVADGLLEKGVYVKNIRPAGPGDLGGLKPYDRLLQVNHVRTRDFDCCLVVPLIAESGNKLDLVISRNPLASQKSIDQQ

GRIP2_4, Q9C0E4 = molecular target: GRIP2_4, Q9C0E4
Sequence of GRIP2_4, Q9C0E4 (Q9C0E4 446-548): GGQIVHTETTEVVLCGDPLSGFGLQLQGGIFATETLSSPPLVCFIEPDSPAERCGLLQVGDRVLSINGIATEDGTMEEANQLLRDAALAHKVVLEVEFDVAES

GRIP2_5, Q9C0E4 = molecular target: GRIP2_5, Q9C0E4
Sequence of GRIP2_5, Q9C0E4 (Q9C0E4 544-642): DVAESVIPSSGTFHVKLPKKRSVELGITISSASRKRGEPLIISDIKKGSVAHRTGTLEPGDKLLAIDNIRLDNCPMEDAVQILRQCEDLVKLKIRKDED

GRIP2_6, Q9C0E4 = molecular target: GRIP2_6, Q9C0E4
Sequence of GRIP2_6, Q9C0E4 (Q9C0E4 648-740): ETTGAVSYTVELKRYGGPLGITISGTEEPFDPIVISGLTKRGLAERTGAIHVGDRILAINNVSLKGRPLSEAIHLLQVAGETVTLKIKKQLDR

GRIP2_7, Q9C0E4 = molecular target: GRIP2_7, Q9C0E4
Sequence of GRIP2_7, Q9C0E4 (Q9C0E4 934-1023): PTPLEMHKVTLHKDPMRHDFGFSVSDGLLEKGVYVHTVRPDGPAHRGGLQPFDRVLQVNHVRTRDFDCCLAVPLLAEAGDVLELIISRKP

HTRA2, O43464 = molecular target: HTRA2, O43464
Sequence of HTRA2, O43464 (O43464 355-458): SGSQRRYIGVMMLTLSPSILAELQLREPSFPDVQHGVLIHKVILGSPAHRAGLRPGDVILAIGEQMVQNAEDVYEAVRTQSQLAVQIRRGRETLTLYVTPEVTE

Inadl_2, Q8NI35 = molecular target: Inadl_2, Q8NI35
Sequence of Inadl_2, Q8NI35 (Q8NI35 238-335): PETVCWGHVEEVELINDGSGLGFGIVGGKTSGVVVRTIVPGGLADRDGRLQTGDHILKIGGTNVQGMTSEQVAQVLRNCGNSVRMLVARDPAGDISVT

LAP2, Q96RT1 = molecular target: LAP2, Q96RT1
Sequence of LAP2, Q96RT1 (Q96RT1 other isoform, or with tags, fused parts or gaps): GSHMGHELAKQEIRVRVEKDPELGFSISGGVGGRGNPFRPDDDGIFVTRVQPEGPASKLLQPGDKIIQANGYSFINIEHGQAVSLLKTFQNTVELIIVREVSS

MAGI2_2, Q86UL8 = molecular target: MAGI2_2, Q86UL8
Sequence of MAGI2_2, Q86UL8 (Q86UL8 410-522): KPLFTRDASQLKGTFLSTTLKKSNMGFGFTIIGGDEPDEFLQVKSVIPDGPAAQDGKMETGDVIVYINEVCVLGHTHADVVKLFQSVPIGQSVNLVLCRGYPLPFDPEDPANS

MAGI2_4, Q86UL8 = molecular target: MAGI2_4, Q86UL8
Sequence of MAGI2_4, Q86UL8 (Q86UL8 772-865): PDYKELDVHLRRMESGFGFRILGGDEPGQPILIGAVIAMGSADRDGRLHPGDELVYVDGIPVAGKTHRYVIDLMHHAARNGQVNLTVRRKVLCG

MPP7, Q5T2T1 = molecular target: T7, MPP7, Q5T2T1
T7 sequence (Q5T2T1 134-230, limits assumed, looked up): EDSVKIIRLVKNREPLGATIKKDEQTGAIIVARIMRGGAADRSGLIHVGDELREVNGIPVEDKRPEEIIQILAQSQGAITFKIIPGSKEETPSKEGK

PDZRN4_1, Q6ZMN7 = molecular target: PDZRN4_1, Q6ZMN7
Sequence of PDZRN4_1, Q6ZMN7 (Q6ZMN7 213-318): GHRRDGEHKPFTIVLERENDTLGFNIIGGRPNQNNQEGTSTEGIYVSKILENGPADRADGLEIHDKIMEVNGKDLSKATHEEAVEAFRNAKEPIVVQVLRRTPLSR

SCRIB_1, Q14160 = molecular target: SCRIB_1, Q14160
Sequence of SCRIB_1, Q14160 (Q14160 718-814): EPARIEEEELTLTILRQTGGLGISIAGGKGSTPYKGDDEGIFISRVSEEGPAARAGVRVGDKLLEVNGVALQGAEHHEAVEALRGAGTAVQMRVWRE

SCRIB_2, Q14160 = molecular target: SCRIB_2, Q14160
Sequence of SCRIB_2, Q14160 (Q14160 857-960): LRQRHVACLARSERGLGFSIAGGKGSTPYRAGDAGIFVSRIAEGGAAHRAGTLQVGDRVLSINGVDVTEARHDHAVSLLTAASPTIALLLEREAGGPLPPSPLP

SNX27, Q96L92 = molecular target: SNX27, Q96L92
SYNJ2BP, P57105 = molecular target: T8, SYNJ2BP, P57105
T8 sequence (P57105 8-110, limits assumed, looked up): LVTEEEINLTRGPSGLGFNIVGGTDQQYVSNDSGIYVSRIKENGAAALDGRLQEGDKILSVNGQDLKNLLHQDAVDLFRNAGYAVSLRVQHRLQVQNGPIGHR

TJP2_1, Q9UDY2 = molecular target: TJP2_1, Q9UDY2
Sequence of TJP2_1, Q9UDY2 (Q9UDY2 24-128): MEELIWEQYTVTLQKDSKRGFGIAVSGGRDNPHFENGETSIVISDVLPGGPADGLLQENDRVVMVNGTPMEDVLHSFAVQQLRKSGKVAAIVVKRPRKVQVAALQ

TJP3_3, O95049 = molecular target: T9, TJP3_3, O95049
T9 sequence (O95049 375-456, limits assumed, looked up): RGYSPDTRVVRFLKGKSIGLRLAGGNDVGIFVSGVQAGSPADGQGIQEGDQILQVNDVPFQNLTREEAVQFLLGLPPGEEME

Binder	pKd (APBA1_1, Q02410)	pKd (APBA2_1, Q99767)	pKd (CASK, O14936)	pKd (DLG5_1, Q8TDM6)	pKd (FRMPD4, Q14CM0)	pKd (GORASP2, Q9H8Y8)	pKd (GRID2IP_1, A4D2P6)	pKd (GRIP1_2, Q9Y3R0)	pKd (GRIP1_3, Q9Y3R0)	pKd (GRIP1_5, Q9Y3R0)	pKd (GRIP1_7, Q9Y3R0)	pKd (GRIP2_4, Q9C0E4)	pKd (GRIP2_5, Q9C0E4)	pKd (GRIP2_6, Q9C0E4)	pKd (GRIP2_7, Q9C0E4)	pKd (HTRA2, O43464)	pKd (Inadl_2, Q8NI35)	pKd (LAP2, Q96RT1)	pKd (MAGI2_2, Q86UL8)	pKd (MAGI2_4, Q86UL8)	further results
B1	below the threshold	below the threshold	3.67	below the threshold	below the threshold	4.41	below the threshold	3.53	below the threshold	below the threshold	below the threshold	below the threshold	below the threshold	4.14	below the threshold	3.85	3.51	below the threshold	below the threshold	below the threshold	pKd (MPP7, Q5T2T1): 4.6; pKd (PDZRN4_1, Q6ZMN7): below the threshold; pKd (SCRIB_1, Q14160): below the threshold; pKd (SCRIB_2, Q14160): below the threshold; pKd (SNX27, Q96L92): 3.56; pKd (SYNJ2BP, P57105): below the threshold; pKd (TJP2_1, Q9UDY2): below the threshold; pKd (TJP3_3, O95049): below the threshold
B2	below the threshold	below the threshold	below the threshold	below the threshold	3.55	4.48	below the threshold	3.8	below the threshold	below the threshold	4.46	below the threshold	below the threshold	below the threshold	4.09	3.96	4.17	5.73	below the threshold	4.07	pKd (MPP7, Q5T2T1): 3.57; pKd (PDZRN4_1, Q6ZMN7): 4.13; pKd (SCRIB_1, Q14160): 4.21; pKd (SCRIB_2, Q14160): 4.94; pKd (SNX27, Q96L92): 5.58; pKd (SYNJ2BP, P57105): 4.98; pKd (TJP2_1, Q9UDY2): 4.4; pKd (TJP3_3, O95049): 4.98
B3	below the threshold	below the threshold	below the threshold	below the threshold	below the threshold	below the threshold	below the threshold	below the threshold	below the threshold	below the threshold	below the threshold	below the threshold	below the threshold	below the threshold	below the threshold	below the threshold	below the threshold	below the threshold	below the threshold	below the threshold	pKd (MPP7, Q5T2T1): below the threshold; pKd (PDZRN4_1, Q6ZMN7): below the threshold; pKd (SCRIB_1, Q14160): below the threshold; pKd (SCRIB_2, Q14160): below the threshold; pKd (SNX27, Q96L92): below the threshold; pKd (SYNJ2BP, P57105): below the threshold; pKd (TJP2_1, Q9UDY2): below the threshold; pKd (TJP3_3, O95049): below the threshold
B4	below the threshold	below the threshold	below the threshold	below the threshold	below the threshold	3.9	below the threshold	below the threshold	below the threshold	below the threshold	below the threshold	below the threshold	below the threshold	3.57	3.81	4.44	below the threshold	below the threshold	4.76	3.63	pKd (MPP7, Q5T2T1): below the threshold; pKd (PDZRN4_1, Q6ZMN7): below the threshold; pKd (SCRIB_1, Q14160): below the threshold; pKd (SCRIB_2, Q14160): below the threshold; pKd (SNX27, Q96L92): below the threshold; pKd (SYNJ2BP, P57105): 3.75; pKd (TJP2_1, Q9UDY2): 4.76; pKd (TJP3_3, O95049): below the threshold
